Measured values reported in publication PMC12102759 (2025).

B1: ATXN2 peptide 913-928 (Ataxin-2), 16-mer library wild type / PABPC1 PABC (PABPC1 PABC domain, residues 544-623) (parent complex)
chain 1: TLNPNAKEFNPRSFSQ
chain 2: PLTASMLASAPPQEQKQMLGERLFPLIQAMHPTLAGKITGMLLEIDNSELLHMLESPESLRSKVDEAVAVLQAHQAKEAA

Variants of: B1
Assay: proteomic peptide phage display deep mutational scan (ProP-PD DMS): M13 P8 16-mer library selected against immobilised GST-tagged bait for four days (rounds), NGS of the eluted pools per day and pseudo-replica; bait immobilised on MaxiSorp plates (10 µg), library pre-cleared on GST, 2 h binding at 4 °C, five washes; one round per day, days 1-4; value from days 2 and 3
For chain 1 TLNPNAKEFWPRSFSQ, the screen value was 0.000811 average fractional NGS count over selection days 2 and 3 (reads of this peptide / all reads for the bait, averaged over …. chain 1 TLNPNAKEFNPRQFSQ was tested, and the screen value was 0.000347 average fractional NGS count over selection days 2 and 3 (reads of this peptide / all reads for the bait, averaged over …. In the case of chain 1 TLNPNAKEFNPRLFSQ, the screen value is reported as 0.0013 average fractional NGS count over selection days 2 and 3 (reads of this peptide / all reads for the bait, averaged over …. In the case of chain 1 TLNPNAKEFNPRTFSQ, the screen value is reported as 0.00197 average fractional NGS count over selection days 2 and 3 (reads of this peptide / all reads for the bait, averaged over …. With chain 1 TLNPNAKEFNPRPFSQ the screen value was 0.0016 average fractional NGS count over selection days 2 and 3 (reads of this peptide / all reads for the bait, averaged over …. With chain 1 TLNPNAKEFNPRYFSQ the screen value was 0.00087 average fractional NGS count over selection days 2 and 3 (reads of this peptide / all reads for the bait, averaged over …. With chain 1 TLNPNAKEFNPRAFSQ the screen value was 0.00421 average fractional NGS count over selection days 2 and 3 (reads of this peptide / all reads for the bait, averaged over …. In the case of chain 1 TLNPNAKEFNPRWFSQ, the screen value is reported as 0.000472 average fractional NGS count over selection days 2 and 3 (reads of this peptide / all reads for the bait, averaged over …. For chain 1 TLNPNAHEFNPRSFSQ, the screen value was 0.0027 average fractional NGS count over selection days 2 and 3 (reads of this peptide / all reads for the bait, averaged over …. For chain 1 TLNPNAVEFNPRSFSQ, the screen value was 0.000726 average fractional NGS count over selection days 2 and 3 (reads of this peptide / all reads for the bait, averaged over …. In the case of chain 1 TLNPNAYEFNPRSFSQ, the screen value is reported as 0.0438 average fractional NGS count over selection days 2 and 3 (reads of this peptide / all reads for the bait, averaged over …. With chain 1 TLNPNADEFNPRSFSQ the screen value was 0.00119 average fractional NGS count over selection days 2 and 3 (reads of this peptide / all reads for the bait, averaged over …. chain 1 TLNPNAFEFNPRSFSQ was tested, and the screen value was 0.00539 average fractional NGS count over selection days 2 and 3 (reads of this peptide / all reads for the bait, averaged over …. In the case of chain 1 TLNPNAIEFNPRSFSQ, the screen value is reported as 0.000344 average fractional NGS count over selection days 2 and 3 (reads of this peptide / all reads for the bait, averaged over …. chain 1 TLNPNATEFNPRSFSQ was tested, and the screen value was 0.000636 average fractional NGS count over selection days 2 and 3 (reads of this peptide / all reads for the bait, averaged over …. For chain 1 TLNPNAWEFNPRSFSQ, the screen value was 0.00309 average fractional NGS count over selection days 2 and 3 (reads of this peptide / all reads for the bait, averaged over …. For chain 1 TLNPNAQEFNPRSFSQ, the screen value was 0.000831 average fractional NGS count over selection days 2 and 3 (reads of this peptide / all reads for the bait, averaged over …. For chain 1 TLNPNASEFNPRSFSQ, the screen value was 0.00126 average fractional NGS count over selection days 2 and 3 (reads of this peptide / all reads for the bait, averaged over …. chain 1 TLNPNAPEFNPRSFSQ was tested, and the screen value was 0.000615 average fractional NGS count over selection days 2 and 3 (reads of this peptide / all reads for the bait, averaged over …. In the case of chain 1 TLNPNAAEFNPRSFSQ, the screen value is reported as 0.0221 average fractional NGS count over selection days 2 and 3 (reads of this peptide / all reads for the bait, averaged over …. In the case of chain 1 TLNPNAKEFNPRSFVQ, the screen value is reported as 0.000359 average fractional NGS count over selection days 2 and 3 (reads of this peptide / all reads for the bait, averaged over …. For chain 1 TLNPNAKEFNPRSFMQ, the screen value was 0.00397 average fractional NGS count over selection days 2 and 3 (reads of this peptide / all reads for the bait, averaged over …. For chain 1 TLNPNAKEFNPRSFGQ, the screen value was 0.00895 average fractional NGS count over selection days 2 and 3 (reads of this peptide / all reads for the bait, averaged over …. For chain 1 TLNPNAKEFNPRSFHQ, the screen value was 0.000448 average fractional NGS count over selection days 2 and 3 (reads of this peptide / all reads for the bait, averaged over …. With chain 1 TLNPNAKEFNPRSFFQ the screen value was 0.000374 average fractional NGS count over selection days 2 and 3 (reads of this peptide / all reads for the bait, averaged over …. In the case of chain 1 TLNPNAKEFNPRSFWQ, the screen value is reported as 0.00221 average fractional NGS count over selection days 2 and 3 (reads of this peptide / all reads for the bait, averaged over …. chain 1 TLNPNAKEFNPRSFEQ was tested, and the screen value was 0.00372 average fractional NGS count over selection days 2 and 3 (reads of this peptide / all reads for the bait, averaged over …. With chain 1 TLNPNAKEFNPRSFIQ the screen value was 0.000409 average fractional NGS count over selection days 2 and 3 (reads of this peptide / all reads for the bait, averaged over …. chain 1 TLNPNAKEFNPRSFPQ was tested, and the screen value was 0.012 average fractional NGS count over selection days 2 and 3 (reads of this peptide / all reads for the bait, averaged over …. chain 1 TLNPNAKEFNPRSYSQ was tested, and the screen value was 0.00139 average fractional NGS count over selection days 2 and 3 (reads of this peptide / all reads for the bait, averaged over …. With chain 1 TLNPNAKEFNPRSPSQ the screen value was 0.00134 average fractional NGS count over selection days 2 and 3 (reads of this peptide / all reads for the bait, averaged over …. For chain 1 TLNPNAKEFNPRSLSQ, the screen value was 0.00171 average fractional NGS count over selection days 2 and 3 (reads of this peptide / all reads for the bait, averaged over …. With chain 1 TLNPNAKEFNPRSISQ the screen value was 0.000362 average fractional NGS count over selection days 2 and 3 (reads of this peptide / all reads for the bait, averaged over …. With chain 1 TLNPNAKEFNPRSHSQ the screen value was 0.00184 average fractional NGS count over selection days 2 and 3 (reads of this peptide / all reads for the bait, averaged over …. In the case of chain 1 TLNPNAKEFNPRSASQ, the screen value is reported as 0.000336 average fractional NGS count over selection days 2 and 3 (reads of this peptide / all reads for the bait, averaged over …. With chain 1 TLNPNAKEFNPRSNSQ the screen value was 0.00127 average fractional NGS count over selection days 2 and 3 (reads of this peptide / all reads for the bait, averaged over …. chain 1 TLNPNAKEFNPRSESQ was tested, and the screen value was 0.000387 average fractional NGS count over selection days 2 and 3 (reads of this peptide / all reads for the bait, averaged over …. For chain 1 TLNPNAKEFNPRSVSQ, the screen value was 0.00125 average fractional NGS count over selection days 2 and 3 (reads of this peptide / all reads for the bait, averaged over …. chain 1 TLNPTAKEFNPRSFSQ was tested, and the screen value was 0.00242 average fractional NGS count over selection days 2 and 3 (reads of this peptide / all reads for the bait, averaged over …. In the case of chain 1 TLNPHAKEFNPRSFSQ, the screen value is reported as 0.00507 average fractional NGS count over selection days 2 and 3 (reads of this peptide / all reads for the bait, averaged over …. chain 1 TLNPGAKEFNPRSFSQ was tested, and the screen value was 0.00173 average fractional NGS count over selection days 2 and 3 (reads of this peptide / all reads for the bait, averaged over …. In the case of chain 1 TLNPKAKEFNPRSFSQ, the screen value is reported as 0.00157 average fractional NGS count over selection days 2 and 3 (reads of this peptide / all reads for the bait, averaged over …. With chain 1 TLNPIAKEFNPRSFSQ the screen value was 0.00126 average fractional NGS count over selection days 2 and 3 (reads of this peptide / all reads for the bait, averaged over …. In the case of chain 1 TLNPFAKEFNPRSFSQ, the screen value is reported as 0.000799 average fractional NGS count over selection days 2 and 3 (reads of this peptide / all reads for the bait, averaged over …. With chain 1 TLNPVAKEFNPRSFSQ the screen value was 0.0117 average fractional NGS count over selection days 2 and 3 (reads of this peptide / all reads for the bait, averaged over …. With chain 1 TLNPQAKEFNPRSFSQ the screen value was 0.00052 average fractional NGS count over selection days 2 and 3 (reads of this peptide / all reads for the bait, averaged over …. For chain 1 TLNPLAKEFNPRSFSQ, the screen value was 0.00771 average fractional NGS count over selection days 2 and 3 (reads of this peptide / all reads for the bait, averaged over …. For chain 1 TLNPMAKEFNPRSFSQ, the screen value was 0.0888 average fractional NGS count over selection days 2 and 3 (reads of this peptide / all reads for the bait, averaged over …. With chain 1 VLNPNAKEFNPRSFSQ the screen value was 0.000977 average fractional NGS count over selection days 2 and 3 (reads of this peptide / all reads for the bait, averaged over …. For chain 1 LLNPNAKEFNPRSFSQ, the screen value was 0.0036 average fractional NGS count over selection days 2 and 3 (reads of this peptide / all reads for the bait, averaged over …. chain 1 ALNPNAKEFNPRSFSQ was tested, and the screen value was 0.00105 average fractional NGS count over selection days 2 and 3 (reads of this peptide / all reads for the bait, averaged over …. For chain 1 MLNPNAKEFNPRSFSQ, the screen value was 0.000194 average fractional NGS count over selection days 2 and 3 (reads of this peptide / all reads for the bait, averaged over …. chain 1 KLNPNAKEFNPRSFSQ was tested, and the screen value was 0.00118 average fractional NGS count over selection days 2 and 3 (reads of this peptide / all reads for the bait, averaged over …. In the case of chain 1 YLNPNAKEFNPRSFSQ, the screen value is reported as 0.0102 average fractional NGS count over selection days 2 and 3 (reads of this peptide / all reads for the bait, averaged over …. chain 1 RLNPNAKEFNPRSFSQ was tested, and the screen value was 0.00254 average fractional NGS count over selection days 2 and 3 (reads of this peptide / all reads for the bait, averaged over …. In the case of chain 1 HLNPNAKEFNPRSFSQ, the screen value is reported as 0.000542 average fractional NGS count over selection days 2 and 3 (reads of this peptide / all reads for the bait, averaged over …. chain 1 GLNPNAKEFNPRSFSQ was tested, and the screen value was 0.00313 average fractional NGS count over selection days 2 and 3 (reads of this peptide / all reads for the bait, averaged over ….
